Assay results: the RNAGym collection of RNA variant scans (doi:10.7554/elife.80360)

B1: Hairpin Ribozyme (parent)
chain: GUCCUCUUUCACGUGCGCGUGAAAGAGAGAAGUGAACCAGAGAAACACACGUUGUGGUAUAUUACCUGGUA

Variants of: B1
Test: self-cleavage, relative activity (ratio to wild type); higher = more cleavage; co-transcriptional
C6A U8A showed a self-cleavage of 0.319.
Work on U7C A41G yielded a self-cleavage of 0.845.
C6G U52A showed a self-cleavage of 0.433.
Variant C6A G19U has a self-cleavage of 0.505.
With U7A G29U the self-cleavage was 0.178.
Variant U7A G29A has a self-cleavage of 0.099.
In the case of U7A U62G, the self-cleavage is reported as 0.0626.
Work on C6G A26C yielded a self-cleavage of 0.22.
With C6G C16A the self-cleavage was 0.54.
In the case of U7G C65G, the self-cleavage is reported as 0.31.
U7G C65A gave a self-cleavage of 0.975.
Work on U7A G56A yielded a self-cleavage of 0.182.
For U7A C37G, the self-cleavage was 0.342.
U7A A23C showed a self-cleavage of 0.894.
For C6A C65G, the self-cleavage was 0.158.
With C6A C65U the self-cleavage was 0.265.
For U7G G29U, the self-cleavage was 0.136.
Work on C6G A71C yielded a self-cleavage of 0.855.
U7C A30G showed a self-cleavage of 0.0858.
Work on C6U C10G yielded a self-cleavage of 0.416.
Work on U7G A64U yielded a self-cleavage of 0.143.
U7G A64C gave a self-cleavage of 0.24.
Work on U7A G40U yielded a self-cleavage of 0.18.
Variant U7A G40C has a self-cleavage of 0.166.
Work on C6U G19U yielded a self-cleavage of 0.715.
C6U G34A gave a self-cleavage of 0.863.
Variant C6U G34C has a self-cleavage of 1.1.
For U7G A35C, the self-cleavage was 0.757.
With U7A U52A the self-cleavage was 0.992.
For C6U A26G, the self-cleavage was 0.31.
C6U A26C gave a self-cleavage of 0.29.
U7A G17A showed a self-cleavage of 0.865.
Work on C6G A35U yielded a self-cleavage of 0.464.
In the case of U7A G32C, the self-cleavage is reported as 0.143.
Work on U7C U20G yielded a self-cleavage of 0.751.
In the case of U7G C18U, the self-cleavage is reported as 1.07.
In the case of U7G C18G, the self-cleavage is reported as 0.739.
C6A U55A showed a self-cleavage of 0.202.
In the case of C6A U55G, the self-cleavage is reported as 0.14.
In the case of C6G U60C, the self-cleavage is reported as 0.618.
Work on U7A C16U yielded a self-cleavage of 0.85.
U7A C16G gave a self-cleavage of 0.779.
With U7C G13C the self-cleavage was 0.518.
For U7C G57U, the self-cleavage was 0.213.
C6G C10G showed a self-cleavage of 0.277.
Work on C6U A41G yielded a self-cleavage of 0.768.
With U7C G27U the self-cleavage was 0.222.
Work on U7G A28U yielded a self-cleavage of 0.498.
C6G G69A gave a self-cleavage of 0.251.
In the case of U7G A61G, the self-cleavage is reported as 0.0998.
With U7C U62A the self-cleavage was 0.288.
With U7C A26G the self-cleavage was 0.667.
For U7C A26C, the self-cleavage was 0.275.
For U7C A49U, the self-cleavage was 0.135.
With C6A G56A the self-cleavage was 0.117.
C6A G56U gave a self-cleavage of 0.218.
U7G C66A gave a self-cleavage of 0.205.
Variant C6G A22C has a self-cleavage of 0.342.
Variant U7A C50U has a self-cleavage of 0.364.
For C6U U9G, the self-cleavage was 0.438.
C6U U9C showed a self-cleavage of 0.369.
In the case of C6U A64C, the self-cleavage is reported as 0.238.
C6U A64U showed a self-cleavage of 0.16.
In the case of C6U A64G, the self-cleavage is reported as 0.514.
For U7G A45C, the self-cleavage was 0.0973.
For U7G A45G, the self-cleavage was 0.102.
Work on U7A A43G yielded a self-cleavage of 0.222.
U7G A31G gave a self-cleavage of 0.503.
With U7G A31U the self-cleavage was 0.216.
Work on U7A C18U yielded a self-cleavage of 0.8.
Work on C6U A36U yielded a self-cleavage of 0.54.
In the case of C6U A36C, the self-cleavage is reported as 0.705.
For C6G U20G, the self-cleavage was 0.248.
In the case of C6G U20C, the self-cleavage is reported as 0.368.
C6A G42A showed a self-cleavage of 0.161.
C6A G34A gave a self-cleavage of 0.817.
Variant C6U U20C has a self-cleavage of 0.806.
C6U U20A showed a self-cleavage of 0.764.
For C6U U7A, the self-cleavage was 0.515.
C6A G54C showed a self-cleavage of 0.209.
In the case of C6U U62C, the self-cleavage is reported as 0.188.
In the case of C6G A61U, the self-cleavage is reported as 0.183.
C6U G40A showed a self-cleavage of 0.344.
In the case of U7A U58C, the self-cleavage is reported as 1.02.
With U7A U58G the self-cleavage was 0.775.
C6U G13C gave a self-cleavage of 0.65.
Work on C6U G13A yielded a self-cleavage of 0.712.
Variant U7A U8G has a self-cleavage of 0.925.
With U7C C66U the self-cleavage was 0.542.
C6A U60A showed a self-cleavage of 0.541.
In the case of C6G C12G, the self-cleavage is reported as 0.294.
C6G C12U showed a self-cleavage of 0.332.
Variant C6G C12A has a self-cleavage of 0.572.
Variant U7G A41C has a self-cleavage of 0.863.
Variant U7G A41G has a self-cleavage of 0.946.
With U7G A41U the self-cleavage was 1.12.
C6A U33C gave a self-cleavage of 0.0869.
Variant C6G A36G has a self-cleavage of 0.768.
U7G G40A showed a self-cleavage of 0.308.
In the case of U7G G40C, the self-cleavage is reported as 0.207.
For U7A A61C, the self-cleavage was 0.188.
Work on C6G C66G yielded a self-cleavage of 0.166.
In the case of U7C A47C, the self-cleavage is reported as 0.205.
For U7C A47U, the self-cleavage was 0.0995.
For U7A U33C, the self-cleavage was 0.151.
U7A A64C gave a self-cleavage of 0.194.
C6G U62C gave a self-cleavage of 0.116.
Variant C6U G42C has a self-cleavage of 0.342.
U7G G13A showed a self-cleavage of 0.704.
U7G C16G gave a self-cleavage of 0.689.
In the case of U7G C16U, the self-cleavage is reported as 0.932.
Work on U7C G21C yielded a self-cleavage of 0.962.
Work on C6U G29C yielded a self-cleavage of 0.13.
U7G A44G showed a self-cleavage of 0.16.
With U7G C12U the self-cleavage was 0.753.
Work on U7G C12A yielded a self-cleavage of 0.732.
Variant C6G C38A has a self-cleavage of 0.103.
For U7C C65U, the self-cleavage was 0.254.
C6G C46A gave a self-cleavage of 0.153.
With C6G C46U the self-cleavage was 0.143.
U7G A36C gave a self-cleavage of 0.669.
Work on U7G A71G yielded a self-cleavage of 1.06.
Work on U7G A71C yielded a self-cleavage of 1.35.
U7C A23C showed a self-cleavage of 0.455.
Variant C6U U67C has a self-cleavage of 0.222.
Variant C6U U67A has a self-cleavage of 0.151.
Work on U7G A39G yielded a self-cleavage of 0.377.
With U7G A39U the self-cleavage was 0.421.
With C6A U7C the self-cleavage was 0.609.
Work on U7G G25U yielded a self-cleavage of 0.17.
With U7G G25C the self-cleavage was 0.253.
Variant C6G A64U has a self-cleavage of 0.105.
C6G A64G gave a self-cleavage of 0.365.
With C6G A64C the self-cleavage was 0.123.
In the case of U7A G68U, the self-cleavage is reported as 0.238.
Variant C6A G29U has a self-cleavage of 0.124.
With C6A G29A the self-cleavage was 0.129.
For U7C G25A, the self-cleavage was 0.306.
U7C G25U showed a self-cleavage of 0.494.
Work on C6G C65A yielded a self-cleavage of 0.527.
Variant C6U A39U has a self-cleavage of 0.381.
For C6A U70G, the self-cleavage was 0.325.
In the case of U7G G15U, the self-cleavage is reported as 0.955.
C6G G15C showed a self-cleavage of 0.545.
C6U C65A showed a self-cleavage of 0.776.
C6G A59U showed a self-cleavage of 0.192.
For C6U A23G, the self-cleavage was 0.768.
C6G A11C gave a self-cleavage of 0.45.
For C6G A11U, the self-cleavage was 0.314.
C6U U52G showed a self-cleavage of 0.797.
U7A C38U showed a self-cleavage of 0.329.
With C6U C37G the self-cleavage was 0.372.
For C6A U62G, the self-cleavage was 0.0891.
C6A U62A gave a self-cleavage of 0.127.
With C6G C48A the self-cleavage was 0.171.
With U7C A22U the self-cleavage was 0.642.
In the case of U7A U55C, the self-cleavage is reported as 0.175.
U7A U55G gave a self-cleavage of 0.205.
For U7A U55A, the self-cleavage was 0.152.
For U7C A64U, the self-cleavage was 0.0591.
C6U U63A showed a self-cleavage of 0.207.
For U7C A24G, the self-cleavage was 0.628.
Work on U7C G34C yielded a self-cleavage of 1.37.
With U7A G19C the self-cleavage was 0.711.
U7A G19U gave a self-cleavage of 0.581.
In the case of U7A A26G, the self-cleavage is reported as 0.71.
C6G A24U showed a self-cleavage of 0.331.
